Experimental data: patent US20100222269A1 (Novo Nordisk, published 2010)
Starred links: 1 amine or outer side, 2 acyl side, 3 side chain; linkers in the order of their positions; H or OH if unused. Positions of bridges follow the written chain, without caps; N, C: chain ends. Non-standard residues stand in square brackets, D forms with d. Groups on a side chain read outwards from the residue. No end group written: not given here. *: point of attachment. C20 diacid = O=C(O)CCCCCCCCCCCCCCCCCCC(=O)*; C18 diacid = O=C(O)CCCCCCCCCCCCCCCCC(=O)*; 17‑carboxyheptanoyl = not defined here; γGlu = O=C(O)[C@H](CCC(=O)[*:2])N[*:1]; AEEA = NCCOCCOCC(=O)O

B1: N-alpha-[(S)-4-carboxy-4-(19-carboxynonadecanoylamino)butyryl]-Glu-Glu-Arg-[Glu1]-pramlintide (1-37) (peptide)
peptide: EERECNTATCATQRLANFLVHSSNNFGPILPPTNVGSNTY
modifications: N-alpha-[(S)-4-carboxy-4-(19-carboxynonadecanoylamino)butyryl] on the N-terminal Glu of the extension; disulfide bridge between the two Cys; C-terminal amide
B2: N-alpha-(17-carboxyheptanoyl)-Glu-[Glu1]-pramlintide (1-37) (peptide)
peptide: {17‑carboxyheptanoyl}-EECNTATCATQRLANFLVHSSNNFGPILPPTNVGSNTY-NH2
modifications: disulfide 3-8 (inferred); reading uncertain; also: printed as N-alpha-(17-carboxyheptanoyl)-Glu-[Glu1]-pramlintide (1-37)
B3: N-alpha-(17-carboxyheptanoyl)-[Arg18]-pramlintide (1-37) (peptide)
peptide: {17‑carboxyheptanoyl}-KCNTATCATQRLANFLVRSSNNFGPILPPTNVGSNTY-NH2
modifications: disulfide 2-7 (inferred); reading uncertain; also: printed as N-alpha-(17-carboxyheptanoyl)-[Arg18]-pramlintide (1-37)
B4: N-alpha-[(S)-4-carboxy-4-(17-carboxyheptadecanoylamino)butyryl]-[Arg18,Leu23,Val26]-pramlintide (2-37) (peptide)
peptide: CNTATCATQRLANFLVRSSNNLGPVLPPTNVGSNTY
modifications: N-alpha-[(S)-4-carboxy-4-(17-carboxyheptadecanoylamino)butyryl] on the N-terminal Cys2; disulfide bridge between the two Cys; C-terminal amide
B5: N-alpha-(2-{2-[2-(2-{2-[2-((S)-4-Carboxy-4-{4-carboxy-4-[4-carboxy-4-(17-carboxyheptadecanoylamino)butyrylamino]butyrylamino}butyrylamino) … (peptide)
peptide: B4 peptide
modifications: N-alpha-(2-{2-[2-(2-{2-[2-((S)-4-Carboxy-4-{4-carboxy-4-[4-carboxy-4-(17-carboxyheptadecanoylamino)butyrylamino]butyrylamino}butyrylamino) ethoxy}ethoxy]acetylamino)ethoxy}ethoxy]acetyl) on the N-terminal Cys2; disulfide bridge between the two Cys; C-terminal amide
B6: N-alpha-(17-carboxyheptanoyl)-[Arg18,Leu23,Val26]-pramlintide (2-37) (peptide)
peptide: {17‑carboxyheptanoyl}-CNTATCATQRLANFLVRSSNNLGPVLPPTNVGSNTY-NH2
modifications: disulfide 1-6 (inferred); reading uncertain; also: printed as N-alpha-(17-carboxyheptanoyl)-[Arg18,Leu23,Val26]-pramlintide (2-37)

biological target: Amylin 3(a) receptor (human calcitonin receptor (CTa) with RAMP-3) on BHK570 cells (human, UniProt P30988 25-474); test: cell-based or functional assay
Sequence (P30988 25-474): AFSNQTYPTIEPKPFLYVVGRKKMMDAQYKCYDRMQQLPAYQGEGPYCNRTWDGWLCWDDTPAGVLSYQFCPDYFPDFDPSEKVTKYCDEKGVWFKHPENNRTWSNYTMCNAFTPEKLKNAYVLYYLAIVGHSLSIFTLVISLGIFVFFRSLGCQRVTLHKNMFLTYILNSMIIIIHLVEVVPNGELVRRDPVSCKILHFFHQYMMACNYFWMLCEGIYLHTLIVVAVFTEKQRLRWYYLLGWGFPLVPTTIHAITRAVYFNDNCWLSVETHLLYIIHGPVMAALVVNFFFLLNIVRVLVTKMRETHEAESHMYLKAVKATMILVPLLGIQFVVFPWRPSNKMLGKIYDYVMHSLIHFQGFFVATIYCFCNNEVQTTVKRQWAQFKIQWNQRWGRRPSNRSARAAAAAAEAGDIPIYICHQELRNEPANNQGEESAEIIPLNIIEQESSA

KCK([AEEA-4‑(16-1H-tetrazol-5-yl-hexadecanoylsulfamoyl)butyryl])TATCATQRLANFLVHSSNNFGPILPPTNVGSNTY-NH2 (disulfide 2-7 (inferred)) was tested. Which Potency luciferase assay did it give?
Its Potency luciferase assay is 100 pM.

Which Potency luciferase assay does the source give for KCK(C18 diacid)TATCATQRLANFLVHSSNNFGPILPPTNVGSNTY-NH2 (disulfide 2-7 (inferred)) [N-epsilon3-(17-carboxyheptadecanoyl)-[Lys3]-pramlintide (1-37)] here?
Its Potency luciferase assay is 50 pM.

For B1, which Potency luciferase assay is on record?
The Potency luciferase assay was 300 pM.

How did the Potency luciferase assay turn out when KCK([γGlu-C18 diacid])TATCATQRLANFLVRSSQNLGPVLPPTNVGSNTY-NH2 (disulfide 2-7 (inferred)) was run?
The Potency luciferase assay was 40 pM.

With B2 as the binder, how does the Potency luciferase assay read?
The Potency luciferase assay was 400 pM.

With {C20 diacid}-EERECQTATCATQRLANFLVRSSQNLGPVLPPTNVGSNTY-NH2 (disulfide 5-10 (inferred)) [N-alpha-(19-carboxynonadecanoyl)-Glu-Glu-Arg-[Glu1,Gln3,Arg18,Gln21,Leu23,Val26]-pramlintide (1-37)] as the binder, how does the Potency luciferase assay read?
Its Potency luciferase assay is 90 pM.

With KCK([Glu-Glu-Glu-Glu-C20 diacid])TATCATQRLANFLVRSSQNLGPVLPPTNVGSNTY-NH2 (disulfide 2-7 (inferred)) as the binder, how does the Potency luciferase assay read?
The Potency luciferase assay was 600 pM.

Which Potency luciferase assay does the source give for KCK([AEEA-Glu-Glu-C20 diacid])TATCATQRLANFLVRSSQNLGPVLPPTNVGSNTY-NH2 (disulfide 2-7 (inferred)) here?
The Potency luciferase assay was 300 pM.

How did the Potency luciferase assay turn out when KCK(C20 diacid)TATCATQRLANFLVHSSNNFGPILPPTNVGSNTY-NH2 (disulfide 2-7 (inferred)) [N-epsilon3-(19-carboxynonadecanoyl)-[Lys3]-pramlintide (1-37)] was run?
Its Potency luciferase assay is 50 pM.

For EERECNTATCATQRLANFLVHSSNNFGPILPPTNVGSNTY-NH2 (disulfide 5-10 (inferred); not fully specified (N-terminus)) [N-alpha-[4-(16-1H-tetrazol-5-yl-hexadecanoylsulfamoyl)-butyryl]-Glu-Glu-Arg-[Glu1]pramlintide (1-37)], which Potency luciferase assay is on record?
The Potency luciferase assay was 90 pM.

B3 was tested. Which Potency luciferase assay did it give?
The Potency luciferase assay was 30 pM.

How did the Potency luciferase assay turn out when KCK([AEEA-AEEA-γGlu-C20 diacid])TATCATQRLANFLVHSSNNFGPILPPTNVGSNTY-NH2 (disulfide 2-7 (inferred)) was run?
The Potency luciferase assay was 300 pM.

How did the Potency luciferase assay turn out when {C20 diacid}-E[AEEA]ECQTATCATQRLANFLVRSSQNLGPVLPPTNVGSNTY-NH2 (disulfide 4-9 (inferred)) was run?
The Potency luciferase assay was 400 pM.

Which Potency luciferase assay does the source give for K([γGlu-C18 diacid])CGTATCATQRLANFLARSSNNFGPILSPTNVGSNTY-NH2 (disulfide 2-7 (inferred)) here?
Its Potency luciferase assay is 70 pM.

For KCNTATCATQRLANFLVHSSNNFGK([AEEA-AEEA-γGlu-γGlu-γGlu-γGlu-C18 diacid])ILPPTNVGSNTY-NH2 (disulfide 2-7 (inferred)), which Potency luciferase assay is on record?
The Potency luciferase assay was 300 pM.

How did the Potency luciferase assay turn out when ECK(17‑carboxyheptanoyl)TATCATQRLANFLVESSNNFGPILPPTNVGSNTY-NH2 (disulfide 2-7 (inferred)) [N-epsilon3-(17-carboxyheptanoyl)-[Glu1,Lys3,Glu18]-pramlintide (1-37)] was run?
Its Potency luciferase assay is 30 pM.

How did the Potency luciferase assay turn out when KCK([AEEA-AEEA-γGlu-C18 diacid])TATCATQRLANFLVPSSNNFGPILPPTNVGSNTY-NH2 (disulfide 2-7 (inferred)) was run?
The Potency luciferase assay was 10000 pM.

For {C20 diacid}-EERECNTATCATQRLANFLVHSSNNFGPILPPTNVGSNTY-NH2 (disulfide 5-10 (inferred)) [N-alpha-(19-carboxynonadecanoyl)-Glu-Glu-Arg-[Glu1]-pramlintide (1-37)], which Potency luciferase assay is on record?
Its Potency luciferase assay is 80 pM.

For KCK([AEEA-AEEA-C18 diacid])TATCATQRLANFLVHSSNNFGPILPPTNVGSNTY-NH2 (disulfide 2-7 (inferred)), which Potency luciferase assay is on record?
Its Potency luciferase assay is 100 pM.

How did the Potency luciferase assay turn out when B4 was run?
The Potency luciferase assay was 30 pM.

B5 was tested. Which Potency luciferase assay did it give?
Its Potency luciferase assay is 900 pM.

Which Potency luciferase assay does the source give for KCNTATCATQRLANFLVHSSNNFGK([γGlu-C18 diacid])ILPPTNVGSNTY-NH2 (disulfide 2-7 (inferred)) [N-epsilon25-[(S)-4-carboxy-4-(17-carboxyheptadecanoylamino)butyryl]-[Lys25]-pramlintide (1-37)] here?
Its Potency luciferase assay is 90 pM.

For KCK([γGlu-C18 diacid])TATCATQRLANFLVPSSNNFGPILPPTNVGSNTY-NH2 (disulfide 2-7 (inferred)) [N-epsilon3-[(S)-4-carboxy-4-(17-carboxyheptadecanoylamino)butyryl]-[Lys3,Pro18]-pramlintide (1-37)], which Potency luciferase assay is on record?
The Potency luciferase assay was 700 pM.

KCK([AEEA-AEEA-γGlu-γGlu-γGlu-C18 diacid])TATCATQRLANFLVPSSNNFGPILPPTNVGSNTY-NH2 (disulfide 2-7 (inferred)) was tested. Which Potency luciferase assay did it give?
The Potency luciferase assay was 20000 pM.

{C20 diacid}-EEEECQTATCATQRLANFLVRSSQNLGPVLPPTNVGSNTY-NH2 (disulfide 5-10 (inferred)) [N-alpha-(19-carboxynonadecanoyl)-Glu-Glu-Glu-[Glu1,Gln3,Arg18,Gln21,Leu23,Val26]-pramlintide (1-37)] was tested. Which Potency luciferase assay did it give?
Its Potency luciferase assay is 2000 pM.

How did the Potency luciferase assay turn out when B6 was run?
Its Potency luciferase assay is 100 pM.

For KCK(17‑carboxyheptanoyl)TATCATQRLANFLVRSSNNFGPILPPTNVGSNTY-NH2 (disulfide 2-7 (inferred)) [N-epsilon3-(17-carboxyheptanoyl)-[Lys3,Arg18]-pramlintide (1-37)], which Potency luciferase assay is on record?
The Potency luciferase assay was 60 pM.
